# No end group written: not given here.
# Assays:
# [1] = target: CTR-C-V_(1–154)/RAMP1-C-V_(155–238) (human) (UniProt O60894)
# [2] = target: CTR/N-V_(155–238)-RAMP1 (human) (UniProt O60894)
# [3] = target: CTR/RAMP1-C-V_(155–238) (human) (UniProt O60894)
# [4] = target: CTR-C-V_(1–154)/RAMP1 (human) (UniProt O60894)
# [5] = target: N-V_(1–154)-CTR/N-V_(155–238)-RAMP1 (human) (UniProt O60894)
# [6] = target: WT CTR/RAMP1 (AMY1 receptor) (human) (UniProt O60894)
# [7] = target: WT CTR (human)
# [8] = target: N-V_(1–154)-CTR/RAMP1 (human) (UniProt O60894)
# [9] = target: N-V_(1–154)-CTR (human)
# [10] = target: CTR-C-V_(1–154) (human)
# Sequence of WT CTR (human) (P30988 25-474): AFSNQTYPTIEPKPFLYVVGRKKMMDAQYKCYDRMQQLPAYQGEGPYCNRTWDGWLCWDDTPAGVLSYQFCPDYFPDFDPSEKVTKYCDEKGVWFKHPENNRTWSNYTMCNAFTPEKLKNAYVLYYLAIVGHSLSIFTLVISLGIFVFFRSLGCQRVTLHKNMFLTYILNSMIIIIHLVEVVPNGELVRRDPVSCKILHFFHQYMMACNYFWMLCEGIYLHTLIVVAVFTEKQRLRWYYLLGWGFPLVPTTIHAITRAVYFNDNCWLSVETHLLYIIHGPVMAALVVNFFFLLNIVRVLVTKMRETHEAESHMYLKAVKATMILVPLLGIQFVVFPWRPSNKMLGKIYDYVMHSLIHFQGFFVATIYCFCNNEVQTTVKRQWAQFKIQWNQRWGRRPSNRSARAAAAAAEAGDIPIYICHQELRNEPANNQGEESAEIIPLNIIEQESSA
Molecule,"Emax of h-αCGRP-stimulated cAMP production, Cos7 cells, percent of the matched WT curve [1]","pEC50 of h-αCGRP-stimulated cAMP production, Cos7 cells, 15 min [1]","Emax of h-αCGRP-stimulated cAMP production, Cos7 cells, percent of the matched WT curve [2]","pEC50 of h-αCGRP-stimulated cAMP production, Cos7 cells, 15 min [2]","Emax of h-αCGRP-stimulated cAMP production, Cos7 cells, percent of the matched WT curve [3]","pEC50 of h-αCGRP-stimulated cAMP production, Cos7 cells, 15 min [3]","Emax of h-αCGRP-stimulated cAMP production, Cos7 cells, percent of the matched WT curve [4]","pEC50 of h-αCGRP-stimulated cAMP production, Cos7 cells, 15 min [4]","Emax of h-αCGRP-stimulated cAMP production, Cos7 cells, percent of the matched WT curve [5]","pEC50 of h-αCGRP-stimulated cAMP production, Cos7 cells, 15 min [5]","pEC50 of h-αCGRP-stimulated cAMP production, Cos7 cells, 15 min (WT control of the N-terminal series) [6]","pEC50 of h-αCGRP-stimulated cAMP production, Cos7 cells, 15 min, CTR without RAMP1 [7]","Emax of h-αCGRP-stimulated cAMP production, Cos7 cells, percent of the matched WT curve [8]","pEC50 of h-αCGRP-stimulated cAMP production, Cos7 cells, 15 min [8]","fold loss of calcitonin potency (cAMP production) against WT CTR, Cos7 cells [9]","fold loss of calcitonin potency (cAMP production) against WT CTR, Cos7 cells [10]"
Human αCGRP (from UniProt P06881 83-119) (peptide),71.5 % of WT,7.52 pEC50,74.9 % of WT,8.16 pEC50,83.5 % of WT,8.62 pEC50,81.2 % of WT,8.41 pEC50,77.3 % of WT,8.83 pEC50,9.1 pEC50,6.63 pEC50,74 % of WT,8.92 pEC50,–,–
CGNLSTCMLGTYTQDFNKFHTFPQTAIGVGAP (ends and bridges not checked; cysteine pairing not given here) [Human calcitonin],–,–,–,–,–,–,–,–,–,–,–,–,–,–,10 fold,3 fold

# From publication PMC11499381
